Assay results from paper PMC3371134 (Journal of Neurochemistry, 2012).

Biological target: calmodulin-Sepharose (calmodulin coupled to Sepharose beads) (UniProt P62157 1-149)
Experiment: pull-down

Binder: APETEKAALAIQGKFRRFQKRKKDS [Pcp4l1 IQ motif synthetic peptide]
- binding result: binds
